{
  "source": "patent US20220023333A1",
  "about": "“METHOD FOR INCREASING CANCER PATIENT'S HAEMOGLOBIN LEVEL” (priority 2019, published 2022)",
  "test": "Blood haemoglobin level in cancer patients (case examples 1-9)",
  "assay_type": "in vivo, human",
  "source_text": "[…] Diagnosis: progressive diffuse-nodular multiple myeloma of the stage IIIB. Myelogenic nephropathy, stage III CKD, terminal stage. Chronic programmed dialysis. The initial level of haemoglobin was 72 g/l. The receiving of EPO 20000 IU and iron preparations was prescribed for a month, as a result of which the level of haemoglobin increased to 84 g/l. However, the patient's condition worsened, and there were diagnosed acute transmural myocardial infarction and weight loss in the patient. The patient was prescribed the administration of 30 ml of the sterile pyrogen-free aqueous solution of the poloxamer comprising 13.3 wt % poloxamer-188 (Emuxol-268 of Grade “A”) and water for injection as the remaining part for 30 days. The level of haemoglobin was 116 g/l. Then, 30 ml of the said poloxamer solution was administered to the patient on a daily basis during 9 courses of chemotherapy (cyclophosphan and boramilane), while EPO and iron preparations were no longer prescribed. The level of haemoglobin was maintained in the range of 116-125 g/l.\n[…] Diagnosis: locally advanced or metastatic bladder cancer of the 4t^h stage with lumbar vertebral metastases. The initial level of haemoglobin was 129 g/l.\nImmunotherapy 1: the patient underwent a course of the therapy with the nivolumab preparation (Opdivo) for 4 months. […]",
  "data": [
    {"substance": "nivolumab", "values": [
      {"measurement": "level of haemoglobin after therapy", "setting": "Example 2, Patient A, bladder cancer 4th stage, nivolumab (Opdivo) for 4 months with regular donated red blood cell transfusion, initial level 129 g/l", "result": 123000, "unit": "µg/mL"},
      {"measurement": "level of haemoglobin after 1 course", "setting": "Example 5, Patient D, right kidney tumor with metastases, nivolumab (Opdivo) immunotherapy, 1 course, initial level 148 g/l", "result": 104000, "unit": "µg/mL"}
    ]}
  ]
}
